Ends that are not written are not given here.
Assays:
[1] = Recovery of Aβ variants for elution from reversed-phase HPLC under different conditions; format: physicochemical
Excerpt: Senile plaques, which are one of the key pathological features of Alzheimer’s disease (AD), are composed of amyloid β peptides (Aβs) with a variety of secondary and tertiary structures because of post-translational modifications ([Saido et al, 1995], [1996]). This heterogeneity appears to affect catabolism and aggregation rates, resulting in structural changes in plaques. […] In contrast, transgenic (Tg) mice overexpressing human APP with pathogenic mutations primarily accumulate Aβ1-40 and Aβ1-42 ([Sturchler-Pierrat et al, 1997]; [Kawarabayashi et al, 2001]). […] There is, however, some discrepancy among different reports regarding the quantity of Aβ variants, which vary depending on the methods employed. […] However, the use of a heated (50°C) basic solvent containing betaine and limited proteolysis using lysyl endopeptidase allows full recovery in HPLC and detection by mass spectrometry, respectively.
Supplementary file : Table S1. Recovery of various Aβ variants for elution from reversed-phase HPLC under different conditions. TFA, trifluoroacetic acid; TEA, triethylamine.

Protocol for rat hippocampus: (A, B, C, D, E, F) Variants of ^3H/^14C-Aβx-42 were subjected to in vivo degradation and subsequent analysis as previously described ([Iwata et al, 2000]). Briefly, 0.5 μg Aβx-42 peptide dissolved in phosphate-buffered saline was unilaterally injected into the CA1 sector of the rat hippocampus and subjected to catabolism until the animals were euthanized by decapitation at the indicated time points. There was no contamination of the injection area by plasma or cerebrospinal fluid as immunohistochemically confirmed using anti-rat IgG. After extraction, the products were analyzed by reversed-phase HPLC connected to a flow scintillation monitor. The HPLC profiles in a ^14C mode at time 0 (red), 10 (blue), and 30/60 (black) minutes after the in vivo injection are shown. […] The major peaks at time 0 indicated by the arrows correspond to the intact substrates.
Digitized data of remaining amounts of intact Aβx-42 shown in Fig 1 were plotted, and then exponential approximation curves were drawn using Microsoft Excel. Each analysis of the in vivo catabolic rate of the Aβx-42 variant was carried out by independent experiments with more than five time points.
Male, 8–10-wk-old, Sprague Dawley rats used for in vivo analysis of metabolic rates of radiolabeled Aβx-42 peptides were obtained from Japan SLC. […] They were housed in plastic cages. […]

Substance | Recovery for elution from reversed phase HPLC ([1]; solvent TEA/betaine (basic), temperature 50℃) | Recovery for elution from reversed phase HPLC ([1]; solvent TFA, temperature 20℃) | Recovery for elution from reversed phase HPLC ([1]; solvent TFA, temperature 50℃) | Half-life (in vivo half-lives of Aβx-42) (rat hippocampus)
Aβ1-40: amyloid β peptide 1-40 | 100% | 100% | 100% | 
Aβ17L-42: Aβ17L-42 (p3 fragment), internally radiolabeled (LVFFAEDVGSNKGAIIGLMVGGVVIA; also: internally radiolabeled, site not given here; UniProt P05067 688-713, looked up, fragment) |  |  |  | 34.69 min

Source: publication PMC11443169 (Life Science Alliance, 2024)
